Among the data in PMC11602132 are stoichiometry N values, retold here.

A word on the stoichiometry N: it is the number of molecules, sites or subunits per partner or assembly.

The assay concerns the target Non-structural protein 15 (Nsp15) from SARS-CoV-2 (SARS-CoV-2). In words: SEC.

Consider “Non-structural protein 15 (Nsp15) from SARS-CoV-2 (enzyme)”, for which the stoichiometry N came out at 6.
